Data published in paper PMC6318248, “Oligomerisation of Synaptobrevin-2 Studied by Native Mass Spectrometry and Chemical Cross-Linking” (Journal of the American Society for Mass Spectrometry, 2018).
“And” between values parts separate entries of the source, which are not always exact repeats. Equal values may be shown once. Read-outs that look alike come from different tables or passages of the source. Blank lines part the entries; values can stand above or below the molecule they belong to.

How the values were obtained:
[1] = target: Synaptobrevin-2, full-length protein Syb(1-116) (Rattus norvegicus) (UniProt P63045); experiment: cross-linking; Syb(1-116) in solution (chaps), 10 μM and 100 μM protein, BS3 (83-166 μM at 100 μM protein), 1 h at 25 °C; Coomassie gel and western blot; cross-linked peptides by LC-MS/MS
[2] = target: Synaptobrevin-2, full-length protein Syb(1-116) (Rattus norvegicus) (UniProt P63045); experiment: as above; remark: listed apart in the source
[3] = target: the molecule itself; experiment: native MS; Syb(49-96) at 10 μM, 200 mM ammonium acetate pH 7.0
[4] = target: the molecule itself; experiment: cross-linking; 650 μM Syb(49-96), 180 and 250 μM BS3, 1 h at 25 °C; Coomassie gel and western blot; cross-linked peptides by LC-MS/MS
[5] = target: the molecule itself; experiment: ion mobility mass spectrometry; Syb(49-96), nESI, home-built drift-tube instrument, helium buffer gas, soft conditions; limited transmission for high m/z

stoichiometry N [1]: 2 and < 5
stoichiometry N [2]: < 6
Molecule: Synaptobrevin-2, full-length protein Syb(1-116) (from UniProt P63045 1-116) (natural protein)

B1: Synaptobrevin-2, C-terminal fragment of the cytosolic domain Syb(49-96) (domain or fragment, Rattus norvegicus, UniProt P63045 49-96, looked up)
chain: NVDKVLERDQKLSELDDRADALQAGASQFETSAAKLKRKYWWKNLKMM
notes: Synaptobrevin-2, Rattus norvegicus, UniProt P63045, residues 49-96 (C-terminal half of the SNARE motif and the juxtamembrane domain); Residual residues of the thrombin cleavage site stay at the N-terminus (measured mass 6045 Da); Plasmid was a gift from R. Jahn; source: E. coli BL21 (DE3), purified (Ni2+ IMAC, thrombin cleavage, reversed IMAC, SEC without detergent); not shown: His-tag, …
stoichiometry N [3]: 2
stoichiometry N [4]: ≤ 10
stoichiometry N [5]: ≤ 3
